B1: Ubiquitin carboxyl-terminal hydrolase BAP1 (Mus musculus), Q99PU7 (parent)
chain: MNKGWLELESDPGLFTLLVEDFGVKGVQVEEIYDLQSKCQGPVYGFIFLFKWIEERRSRRKVSTLVDDTSVIDDDIVNNMFFAHQLIPNSCATHALLSVLLNCSNVDLGPTLSRMKDFTKGFSPESKGYAIGNAPELAKAHNSHARPEPRHLPEKQNGLSAVRTMEAFHFVSYVPITGRLFELDGLKVYPIDHGPWGEDEEWTDKARRVIMERIGLATAGEPYHDIRFNLMAVVPDRRIKYETRLHVLKVNRQTVLEALQQLIRVTQPELIQTHKSQESQLPEESKPASSKSPLGLEAGRTPVASECTQTDGAEEVAGSCPQTTTHSPPSKCKLVVKPPGSSLNGVPPNPAPIVQRLPAFLDNHNYAKSPMQEEEDLAAGVGRSRVPVRAPQQYSEDEDDYEDEDEDVQNTNPAIRYKRKGTGKPGSLSNSSDGQLSVLQPNTINVLTEKLQESQKDLSVPLSIKTSSGAGSPAVAVPTHSQPSPTPSNESTDTASEIGSAFNSPLRSPIRSANPTRPSSPVTSHISKVLFGEDDSLLRVDCIRYNRAVRDLGPVISTGLLHLAEDGVLSPLALTEGGKGSSPSTRSSQGSQGSSGLEEKEVVEVTESRDKPGLNRSSEPLSGEKYSPKELLALLKCVEAEIANYEACLKEEVEKRKKFKIDDQRRTHNYDEFICTFISMLAQEGMLANLVEQNISVRRRQGVSIGRLHKQRKPDRRKRSRPYKAKRQ

Variants of: B1
Settings: with brca1_human BRCA1, P38398
Sequence of brca1_human BRCA1, P38398 (P38398 whole entry, looked up): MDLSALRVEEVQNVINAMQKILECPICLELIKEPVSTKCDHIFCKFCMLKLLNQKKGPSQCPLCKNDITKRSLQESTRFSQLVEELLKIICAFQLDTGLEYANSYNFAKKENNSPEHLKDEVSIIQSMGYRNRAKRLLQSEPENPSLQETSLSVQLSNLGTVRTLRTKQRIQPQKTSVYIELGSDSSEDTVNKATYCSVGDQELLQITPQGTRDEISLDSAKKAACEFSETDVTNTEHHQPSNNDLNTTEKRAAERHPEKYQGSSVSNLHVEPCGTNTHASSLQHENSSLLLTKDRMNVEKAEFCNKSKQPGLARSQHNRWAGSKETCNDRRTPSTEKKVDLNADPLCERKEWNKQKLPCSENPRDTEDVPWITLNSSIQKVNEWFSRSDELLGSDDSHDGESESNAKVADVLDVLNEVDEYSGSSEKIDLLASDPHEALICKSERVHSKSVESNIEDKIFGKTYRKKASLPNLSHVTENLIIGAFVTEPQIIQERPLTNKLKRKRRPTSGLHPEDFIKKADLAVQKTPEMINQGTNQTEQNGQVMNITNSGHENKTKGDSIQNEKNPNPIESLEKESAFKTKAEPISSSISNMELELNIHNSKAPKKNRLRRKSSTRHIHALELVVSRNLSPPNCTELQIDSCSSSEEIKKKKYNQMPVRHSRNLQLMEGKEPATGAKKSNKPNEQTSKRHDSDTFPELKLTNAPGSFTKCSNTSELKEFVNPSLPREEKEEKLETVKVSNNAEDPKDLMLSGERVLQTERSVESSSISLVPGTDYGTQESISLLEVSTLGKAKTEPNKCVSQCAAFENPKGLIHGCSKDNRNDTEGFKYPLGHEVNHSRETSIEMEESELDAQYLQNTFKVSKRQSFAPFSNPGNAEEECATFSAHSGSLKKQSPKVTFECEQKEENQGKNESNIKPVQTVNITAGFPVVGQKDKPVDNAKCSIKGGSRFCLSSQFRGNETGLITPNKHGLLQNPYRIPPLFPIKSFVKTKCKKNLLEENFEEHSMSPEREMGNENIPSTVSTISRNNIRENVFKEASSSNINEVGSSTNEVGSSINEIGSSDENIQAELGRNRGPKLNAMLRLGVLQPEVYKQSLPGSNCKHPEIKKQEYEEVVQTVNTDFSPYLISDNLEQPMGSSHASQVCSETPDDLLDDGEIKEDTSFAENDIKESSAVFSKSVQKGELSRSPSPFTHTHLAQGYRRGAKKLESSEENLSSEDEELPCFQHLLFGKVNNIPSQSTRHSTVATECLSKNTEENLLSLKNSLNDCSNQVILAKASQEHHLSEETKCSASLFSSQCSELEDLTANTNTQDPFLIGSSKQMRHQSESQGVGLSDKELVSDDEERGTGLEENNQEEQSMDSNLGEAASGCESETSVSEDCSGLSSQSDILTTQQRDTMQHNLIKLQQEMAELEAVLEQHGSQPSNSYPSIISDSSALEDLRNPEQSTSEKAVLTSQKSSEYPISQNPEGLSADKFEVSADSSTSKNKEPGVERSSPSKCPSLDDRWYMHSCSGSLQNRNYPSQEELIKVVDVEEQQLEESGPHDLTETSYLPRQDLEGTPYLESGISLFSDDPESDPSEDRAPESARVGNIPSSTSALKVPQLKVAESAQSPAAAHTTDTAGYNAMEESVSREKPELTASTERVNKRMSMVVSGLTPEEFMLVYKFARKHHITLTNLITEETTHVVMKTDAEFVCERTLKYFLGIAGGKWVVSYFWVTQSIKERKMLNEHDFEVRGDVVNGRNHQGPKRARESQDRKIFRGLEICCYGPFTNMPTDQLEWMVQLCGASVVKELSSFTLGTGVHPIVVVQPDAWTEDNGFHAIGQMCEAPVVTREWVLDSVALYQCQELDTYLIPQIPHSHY

Row | Variant | effect of a mutation on the interaction
1 | L690P | disrupting interaction
